In publication PMC11350156 one finds binding result and Kd data, which are given here for three molecules.

Data set [1] concerns the target T1, 6xHis-UL44(1-290) (Human cytomegalovirus, UniProt P16790 1-290). As to the kind of experiment: pull-down.
For data set [2], the target named is T2, 6xHis-IE2(87-579) (Human cytomegalovirus, UniProt Q6SWP7 87-579).
T2 sequence: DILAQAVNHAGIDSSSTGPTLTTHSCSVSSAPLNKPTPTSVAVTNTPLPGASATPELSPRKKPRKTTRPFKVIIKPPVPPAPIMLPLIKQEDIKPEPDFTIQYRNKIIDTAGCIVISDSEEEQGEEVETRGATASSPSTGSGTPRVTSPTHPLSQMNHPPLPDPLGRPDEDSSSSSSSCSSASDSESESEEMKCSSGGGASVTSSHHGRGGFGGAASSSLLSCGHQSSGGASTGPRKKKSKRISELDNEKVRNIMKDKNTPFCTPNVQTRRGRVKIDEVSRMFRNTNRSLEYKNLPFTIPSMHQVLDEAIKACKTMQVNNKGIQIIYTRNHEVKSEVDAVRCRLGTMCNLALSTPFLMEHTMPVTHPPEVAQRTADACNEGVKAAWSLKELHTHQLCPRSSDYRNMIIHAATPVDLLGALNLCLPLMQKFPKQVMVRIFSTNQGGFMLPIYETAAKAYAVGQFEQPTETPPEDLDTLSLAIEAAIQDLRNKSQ
Description: pull-down.

Data set [3] has as its target T3, UL84-6xHis (Human cytomegalovirus, UniProt P16727 1-586).
T3 sequence: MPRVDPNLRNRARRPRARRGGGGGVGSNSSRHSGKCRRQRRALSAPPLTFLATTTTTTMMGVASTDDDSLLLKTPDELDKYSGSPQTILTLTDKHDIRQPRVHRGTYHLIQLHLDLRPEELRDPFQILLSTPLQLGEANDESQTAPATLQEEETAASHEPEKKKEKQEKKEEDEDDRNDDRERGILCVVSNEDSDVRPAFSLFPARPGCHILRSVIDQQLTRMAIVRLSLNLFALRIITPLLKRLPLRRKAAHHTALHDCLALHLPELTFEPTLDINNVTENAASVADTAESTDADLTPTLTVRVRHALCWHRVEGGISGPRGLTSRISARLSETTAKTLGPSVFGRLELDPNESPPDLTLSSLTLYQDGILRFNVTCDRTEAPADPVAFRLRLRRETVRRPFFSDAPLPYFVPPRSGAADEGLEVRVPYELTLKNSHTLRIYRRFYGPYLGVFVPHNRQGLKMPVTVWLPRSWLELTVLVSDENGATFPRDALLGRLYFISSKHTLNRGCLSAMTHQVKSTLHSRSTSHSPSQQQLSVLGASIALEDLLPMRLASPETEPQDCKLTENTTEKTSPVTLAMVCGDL
Description: pull-down.

In data set [4] the target is T1, 6xHis-UL44(1-290). Description: ELISA.
Data set [5] concerns the target T2, 6xHis-IE2(87-579). Description: ELISA.
Data set [6] deals with T3, UL84-6xHis. As to the kind of experiment: ELISA. In general terms: In an ELISA, binding on a coated surface is turned into a signal by an enzyme label.
The target of data set [7] is T1, 6xHis-UL44(1-290). Description: pull-down immunoblot.
Data set [8] addresses T2, 6xHis-IE2(87-579). As to the kind of experiment: pull-down immunoblot.
The target in data set [9] is T3, UL84-6xHis. As to the kind of experiment: pull-down immunoblot. For orientation: In western blotting, separated proteins are transferred to a membrane and probed.

T1 sequence (P16790 1-290): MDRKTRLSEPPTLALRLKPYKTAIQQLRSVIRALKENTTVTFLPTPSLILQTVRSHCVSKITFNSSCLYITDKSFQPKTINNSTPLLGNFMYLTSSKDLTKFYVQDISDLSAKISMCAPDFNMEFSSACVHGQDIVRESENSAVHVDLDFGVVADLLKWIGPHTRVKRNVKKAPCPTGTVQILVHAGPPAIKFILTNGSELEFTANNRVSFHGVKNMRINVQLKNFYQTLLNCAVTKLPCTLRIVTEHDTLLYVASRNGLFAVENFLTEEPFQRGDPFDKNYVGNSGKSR

Turning to AAGGAGAGAGGTGAGGAGGAAAGGTT (ssDNA) [oriG4-1m], the binding result in the data set with 6xHis-UL44(1-290) [1], in the data set with 6xHis-IE2(87-579) [2] and with UL84-6xHis [3] was “no binding” in each case.

Broadly, the Kd is the equilibrium constant for the complex coming apart. On to AAGGGGGGGGGTGAGGGGGGGGGGTT (structured_DNA) [oriG4-1], for which the figures for the dissociation constant Kd with 6xHis-UL44(1-290) [4], with 6xHis-IE2(87-579) [5] and in the data set with UL84-6xHis [6] were 25.5 nM, 123 nM and 14.2 nM, respectively.

Take AAGGGAAAGGGTGAGGGGGGGGGGTT (structured_DNA) [oriG4-1 L1]: the binding result in the data set with 6xHis-UL44(1-290) [7], with 6xHis-IE2(87-579) [8] and with UL84-6xHis [9] was “binds” in each case.
